Laboratory results published in PMC3504009 (PLoS ONE, 2012).

Molecular target: T1, YscUCC, C-terminal polypeptide of the cleaved cytosolic domain YscUC of YscU, wild type (Y. pseudotuberculosis, UniProt P69987 264-354)
T1 sequence: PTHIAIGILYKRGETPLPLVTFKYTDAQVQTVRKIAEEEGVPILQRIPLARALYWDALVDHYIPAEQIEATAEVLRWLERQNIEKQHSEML
Assay: circular dichroism, dissociation kinetics
Details: both partners purified

B1: YscUCN, N-terminal cytoplasmic polypeptide of the cleaved cytosolic domain YscUC of YscU (domain or fragment)
chain: IKELKMSKDEIKREYKEMEGSPEIKSKRRQFHQEIQSRNMRENVKRSSVVVAN
binding result: binds
